From PMC8219380, “The discriminatory power of the T cell receptor” (eLife, 2021) come the findings set out here.

One assay relates to ErbB2. Kind of assay: Discrimination power from published data: ErbB2 CARs. The note with it: n 4, ref Liu 2015. An excerpt:
(§1) The broad method was to obtain a measure of ligand potency from each study. […] If not explicitly provided, we estimated ligand potency as PX , which was defined by the concentration of ligand that produced X response. To do this, we drew a horizontal line at X on a provided dose-response graph and estimated the ligand concentration where the data intercepted the horizontal line. The disadvantage with this method is that ligand potency was estimated based on the single representative graph provided in the study.
(§2) Each study often contained or cited a study that contained estimates of KD or koff for the specific TCR/pMHC interactions used in the study. We only included studies where monomeric SPR binding data was available to avoid multimeric binding parameters (e.g. when using tetramers). However, when analysing discrimination by other non-TCR receptors, we included binding data from various methods (e.g. SPR, radio labelled ligands) provided they were monomeric measurements. The use of SPR is important for weak interactions, such as TCR/pMHC, but various methods are available for higher-affinity interactions.
(§3) The plot of potency over KD or k off was fit using linear regression on log-transformed axes. We reported the slope of the fit (i.e. the discrimination power, α), the goodness-of-fit measure ( R^2 ), and the p-value for the null hypothesis that the slope is zero (i.e. α=0 ). […]

Another assay has as its system IFNAR1 and IFNAR2. The assay can be described thus: Discrimination power from published data: type I IFN receptor. The note with it: n 13, ref Thomas C. 2011.
From the text: as §1, §2, §3

In another assay the test system is M3 muscarinic receptor. Kind of assay: Discrimination power from published data: M3 receptor. Particulars: n 7, ref Sykes 2009.
From the text: as §1, §2, §3

For another assay, the system named is c-Kit. Kind of assay: Discrimination power from published data: c-Kit. The note with it: n 4, ref Ho 2017.
From the text: as §1, §2, §3

The subject of a further assay is gp130. The assay can be described thus: Discrimination power from published data: IL-6 receptor. Particulars: ns, ref Martinez-Fabregas 2019.
From the text: as §1, §2, §3

For the next assay, the system named is CXC chemokine receptor 3. Kind of assay: Discrimination power from published data: CXCR3. The note with it: ref Heise 2005.
From the text: as §1, §2
(§4) The plot of potency over KD or k off was fit using linear regression on log-transformed axes. We reported the slope of the fit (i.e. the discrimination power, α), the goodness-of-fit measure ( R^2 ), and the p-value for the null hypothesis that the slope is zero (i.e. α=0 ). We defined significance using the threshold of p=0.05.
Therefore, ligand affinity may not correlate to functional potency. Instead, we focused on identifying studies that used ligands that were confirmed to bind to the same interface with different affinities. As an example, Sykes et al. used seven agonists to the muscarinic M3 receptor and confirmed they all bound to the same interface using a binding competition assay ([Sykes et al., 2009]). Using titrations of each ligand, they examined the binding of GTPγS to CHO-M3 membrane as a measure of response (Figure 6C, left). […]

The subject of the next assay is IL-13Ra1. Kind of assay: Discrimination power from published data: IL-13 receptor. Particulars: ref Moraga 2015.
From the text: as §1, §2, §4
Cytokine receptors transduce signals by ligand-induced dimerisation of receptor subunits. We identified five studies that produced ligands with mutations that modified binding to either one or both receptor subunits and either reported potency or provided dose-response curves from which potency can be extracted ([Levin et al., 2012]; [Moraga et al., 2015]; [Thomas et al., 2011a]; [Mendoza et al., 2017]; [Martinez-Fabregas et al., 2019]). […] By measuring cellular responses, such as upregulation of CD86 on monocytes, dose-response curves were generated for each IL-13 variant, allowing us to determine ligand potency. We observed a significant correlation between potency and KD (Figure 6A). We repeated the analysis for each study (Figure 6—source data 1 ID 1–13). In studies that included ligands with mutations to both receptor interfaces, we plotted potency over the product of the dissociation constants to each interface since this serves as an estimate of the overall affinity (i.e. KD1×KD2 ).

For ErB2, the “Power (discrimination power)” value in the assay on ErbB2 (ID 26, output CD107) was found to be 1.058; in the assay with ErbB2 (ID 27, output Proliferation, ns), 0.6409.
IFNAR1/IFNAR2: the “Power (discrimination power)” value in the assay on IFNAR1 and IFNAR2 (ID 7, output antiviral) was found to be 0.7137; with IFNAR1 and IFNAR2 (ID 8, output antiproliferation) it was 1.329.
Consider “M3 muscarinic receptor: M3 muscarinic receptor, set of agonists”, for which the “Power (discrimination power)” value in the assay with M3 muscarinic receptor (ID 19, output Calcium, ns) is given as 0.7717; in the assay with M3 muscarinic receptor (ID 20, output GTPyS Binding), 0.5478.
As to “c-Kit: receptor tyrosine kinase activated by SCF”, the “Power (discrimination power)” value with c-Kit (ID 15, output pERK) is 0.834; in the assay with c-Kit (ID 16, output pAKT) it was 0.882.

B1: gp130 (and IL6R alpha) (protein, UniProt P40189 23-918; P08887 20-468, looked up)
Interleukin-6 receptor … 1: ELLDPCGYISPESPVVQLHSNFTAVCVLKEKCMDYFHVNANYIVWKTNHFTIPKEQYTIINRTASSVTFTDIASLNIQLTCNILTFGQLEQNVYGITIISGLPPEKPKNLSCIVNEGKKMRCEWDGGRETHLETNFTLKSEWATHKFADCKAKRDTPTSCTVDYSTVYFVNIEVWVEAENALGKVTSDHINFDPVYKVKPNPPHNLSVINSEELSSILKLTWTNPSIKSVIILKYNIQYRTKDASTWSQIPPEDTASTRSSFTVQDLKPFTEYVFRIRCMKEDGKGYWSDWSEEASGITYEDRPSKAPSFWYKIDPSHTQGYRTVQLVWKTLPPFEANGKILDYEVTLTRWKSHLQNYTVNATKLTVNLTNDRYLATLTVRNLVGKSDAAVLTIPACDFQATHPVMDLKAFPKDNMLWVEWTTPRESVKKYILEWCVLSDKAPCITDWQQEDGTVHRTYLRGNLAESKCYLITVTPVYADGPGSPESIKAYLKQAPPSKGPTVRTKKVGKNEAVLEWDQLPVDVQNGFIRNYTIFYRTIIGNETAVNVDSSHTEYTLSSLTSDTLYMVRMAAYTDEGGKDGPEFTFTTPKFAQGEIEAIVVPVCLAFLLTTLLGVLFCFNKRDLIKKHIWPNVPDPSKSHIAQWSPHTPPRHNFNSKDQMYSDGNFTDVSVVEIEANDKKPFPEDLKSLDLFKKEKINTEGHSSGIGGSSCMSSSRPSISSSDENESSQNTSSTVQYSTVVHSGYRHQVPSVQVFSRSESTQPLLDSEERPEDLQLVDHVDGGDGILPRQQYFKQNCSQHESSPDISHFERSKQVSSVNEEDFVRLKQQISDHISQSCGSGQMKMFQEVSAADAFGPGTEGQVERFETVGMEAATDEGMPKSYLPQTVRQGGYMPQ
Interleukin-6 receptor … 2: LAPRRCPAQEVARGVLTSLPGDSVTLTCPGVEPEDNATVHWVLRKPAAGSHPSRWAGMGRRLLLRSVQLHDSGNYSCYRAGRPAGTVHLLVDVPPEEPQLSCFRKSPLSNVVCEWGPRSTPSLTTKAVLLVRKFQNSPAEDFQEPCQYSQESQKFSCQLAVPEGDSSFYIVSMCVASSVGSKFSKTQTFQGCGILQPDPPANITVTAVARNPRWLSVTWQDPHSWNSSFYRLRFELRYRAERSKTFTTWMVKDLQHHCVIHDAWSGLRHVVQLRAQEEFGQGEWSEWSPEAMGTPWTESRSPPAENEVSTPMQALTTNKDDDNILFRDSANATSLPVQDSSSVPLPTFLVAGGSLAFGTLLCIAIVLRFKKTWKLRALKEGKTSMHPPYSLGQLVPERPRPTPVLVPLISPPVSPSSLGSDNTSSHNRPDARDPRSPYDISNTDYFFPR
For B1, the “Power (discrimination power)” value in the assay with gp130 (ID 12, output pSTAT1, n 3) turned out to be 0.5438; in the assay on gp130 (ID 13, output pSTAT3, n 4) it was 0.5194.

B2: CXC chemokine receptor 3: CXCR3 with chemokine ligands (protein, UniProt P49682 1-368, looked up)
C-X-C chemokine receptor type …: MVLEVSDHQVLNDAEVAALLENFSSSYDYGENESDSCCTSPPCPQDFSLNFDRAFLPALYSLLFLLGLLGNGAVAAVLLSRRTALSSTDTFLLHLAVADTLLVLTLPLWAVDAAVQWVFGSGLCKVAGALFNINFYAGALLLACISFDRYLNIVHATQLYRRGPPARVTLTCLAVWGLCLLFALPDFIFLSAHHDERLNATHCQYNFPQVGRTALRVLQLVAGFLLPLLVMAYCYAHILAVLLVSRGQRRLRAMRLVVVVVVAFALCWTPYHLVVLVDILMDLGALARNCGRESRVDVAKSVTSGLGYMHCCLNPLLYAFVGVKFRERMWMLLLRLGCPNQRGLQRQPSSSRRDSSWSETSEASYSGL
On to B2, for which the “Power (discrimination power)” value in the assay with CXC chemokine receptor 3 (ID 22, output Calcium mobilization, n 3) is 0.7346; in the assay with CXC chemokine receptor 3 (ID 23, output GTP gamma S Binding, n 3), 1.056; in the assay with CXC chemokine receptor 3 (ID 24, output Migrated Cells, n 2, ns, Perfect line), 0.5609.

B3: IL-13Rα2 (protein, UniProt Q14627 27-380, looked up)
Interleukin-13 receptor …: DTEIKVNPPQDFEIVDPGYLGYLYLQWQPPLSLDHFKECTVEYELKYRNIGSETWKTIITKNLHYKDGFDLNKGIEAKIHTLLPWQCTNGSEVQSSWAETTYWISPQGIPETKVQDMDCVYYNWQYLLCSWKPGIGVLLDTNYNLFYWYEGLDHALQCVDYIKADGQNIGCRFPYLEASDYKDFYICVNGSSENKPIRSSYFTFQLQNIVKPLPPVYLTFTRESSCEIKLKWSIPLGPIPARCFDYEIEIREDDTTLVTATVENETYTLKTTNETRQLCFVVRSKVNIYCSDDGIWSEWSDKQCWEGEDLSKKTLLRFWLPFGFILILVIFVTGLLLRKPNTYPKMIPEFFCDT
Take B3: the “Power (discrimination power)” value with IL-13Ra1 (ID 4, output Proliferation, n 9, ns) came to 0.394; in the assay on IL-13Ra1 (ID 5, output CD86), 0.442.

B4: IL-13Rα1 (protein, UniProt P78552 22-427, looked up)
Interleukin-13 receptor …: GGGGAAPTETQPPVTNLSVSVENLCTVIWTWNPPEGASSNCSLWYFSHFGDKQDKKIAPETRRSIEVPLNERICLQVGSQCSTNESEKPSILVEKCISPPEGDPESAVTELQCIWHNLSYMKCSWLPGRNTSPDTNYTLYYWHRSLEKIHQCENIFREGQYFGCSFDLTKVKDSSFEQHSVQIMVKDNAGKIKPSFNIVPLTSRVKPDPPHIKNLSFHNDDLYVQWENPQNFISRCLFYEVEVNNSQTETHNVFYVQEAKCENPEFERNVENTSCFMVPGVLPDTLNTVRIRVKTNKLCYEDDKLWSNWSQEMSIGKKRNSTLYITMLLIVPVIVAGAIIVLLLYLKRLKIIIFPPIPDPGKIFKEMFGDQNDDTLHWKKYDIYEKQTKEETDSVVLIENLKKASQ
With B4, the “Power (discrimination power)” value with IL-13Ra1 (ID 3, output pSTAT6, n 9) was 0.471; in the assay on IL-13Ra1 (ID 6, output CD205, n 9), 0.421.
